Laboratory results: patent US20080280827A1
Values belong to the molecule of their own block, whether it stands above or below them.

Key:
[1] = molecular target: recombinant human LAP (R & D) (UniProt P01137)
[2] = molecular target: plasmin/plasma kallikrein; test: cell-based or functional assay

Sequence of recombinant human LAP (R & D) (P01137 whole entry, looked up): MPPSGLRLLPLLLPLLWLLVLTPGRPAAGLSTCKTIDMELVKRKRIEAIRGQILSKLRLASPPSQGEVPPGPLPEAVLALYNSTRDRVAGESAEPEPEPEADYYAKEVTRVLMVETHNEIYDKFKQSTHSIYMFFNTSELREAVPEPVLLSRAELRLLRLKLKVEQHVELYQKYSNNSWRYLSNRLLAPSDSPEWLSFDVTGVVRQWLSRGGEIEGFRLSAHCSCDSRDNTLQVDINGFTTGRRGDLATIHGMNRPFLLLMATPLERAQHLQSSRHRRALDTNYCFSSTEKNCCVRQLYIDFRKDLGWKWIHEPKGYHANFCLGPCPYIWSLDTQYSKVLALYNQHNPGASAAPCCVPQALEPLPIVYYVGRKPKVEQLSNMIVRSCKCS

Molecule: plasma kallikrein (SIGMA)
LAP cleavage reaction (western blot: LAP 41 kDa, LAP degradation product 38 kDa) [1]: attenuation of LAP band found in panel A, and generation of LAP degradation product found in panel B

amount of active TGF-β generated into the conditioned medium, relative to control [2]: 74 % of control
B1: T200 peptide (Thr-Gly-Val-Val-Arg-Gln-Trp-Leu-Ser-Arg-Gly) (peptide)
peptide: TGVVRQWLSRG

inhibition of generation of active TGF-β in conditioned medium of rat hepatic stellate cells (ELISA, peptide 0.5 mM) [2]: 90%
B2: QPQ peptide (peptide)
peptide: QILSQQQQASP

inhibition of generation of active TGF-β in conditioned medium of rat hepatic stellate cells (ELISA, peptide 0.5 mM) [2]: 55%
B3: QP peptide (Gln-Ile-Leu-Ser-Lys-Leu-Arg-Leu-Ala-Ser-Pro) (peptide)
peptide: QILSKLRLASP
